Reference: publication doi:10.1101/2024.02.16.579620 (bioRxiv, 2024)
“And” between values parts separate entries of the source, which are not always exact repeats. Equal entries are not always repeated.

Experiments:
[1] = target: the molecule itself; experiment: MST
[2] = target: ΔEspP peptide; experiment: dynamic light scattering
[3] = target: the molecule itself; experiment: SEC

Row | Binder | Kd [1] | binding result [2] | stoichiometry N [3]
1 | FITC-labelled human Ire1α luminal domain (aa 24-449) (domain or fragment, FITC label (site not stated)) STVTLPETLLFVSTLDGSLHAVSKRTGSIKWTLKEDPVLQVPTHVEEPAFLPDPNDGSLYTLGSKNNEGLTKLPFTIPELVQASPCRSSDGILYMGKKQDIWYVIDLLTGEKQQTLSSAFADSLCPSTSLLYLGRTEYTITMYDTKTRELRWNATYFDYAASLPEDDVDYKMSHFVSNGDGLVVTVDSESGDVLWIQNYASPVVAFYVWQREGLRKVMHINVAVETLRYLTFMSGEVGRITKWKYPFPKETEAKSKLTPTLYVGKYSTSLYASPSMVHEGVAVVPRGSTLPLLEGPQTDGVTIGDKGECVITPSTDVKFDPGLKSKNKLNYLRNYWLLIGHHETPLSASTKMLERFPNNLPKHRENVIPADSEKKSFEEVINLVDQTSENAPTTVSRDVEEKPAHAPARPEAPVDSMLKDMATIIL | 500 nM | – | –
2 | human Ire1α luminal domain (aa 24-449), wild type (domain or fragment) STVTLPETLLFVSTLDGSLHAVSKRTGSIKWTLKEDPVLQVPTHVEEPAFLPDPNDGSLYTLGSKNNEGLTKLPFTIPELVQASPCRSSDGILYMGKKQDIWYVIDLLTGEKQQTLSSAFADSLCPSTSLLYLGRTEYTITMYDTKTRELRWNATYFDYAASLPEDDVDYKMSHFVSNGDGLVVTVDSESGDVLWIQNYASPVVAFYVWQREGLRKVMHINVAVETLRYLTFMSGEVGRITKWKYPFPKETEAKSKLTPTLYVGKYSTSLYASPSMVHEGVAVVPRGSTLPLLEGPQTDGVTIGDKGECVITPSTDVKFDPGLKSKNKLNYLRNYWLLIGHHETPLSASTKMLERFPNNLPKHRENVIPADSEKKSFEEVINLVDQTSENAPTTVSRDVEEKPAHAPARPEAPVDSMLKDMATIIL | – | binds | 2 and 4
